Read-outs that look alike come from different tables or passages of the source.

Experiment [1] is described as follows: Isothermal titration calorimetry (ITC) of PBP variants with inorganic phosphate. The experiment is classed as binding, E. coli. Conditions: 25 °C, unlabeled protein, mean ± SD from n = 2 protein preparations. Here is the method: Protein from a diluted solution was concentrated to ~ 30 µM using a Viva Spin 6 concentrator with a 10 kDa MWCO. The filtrate was used to prepare the phosphate solution at 450 µM. The reaction cell was filled with the protein solution and titrated in 19 steps of 2 µl each of phosphate solution in 160 s intervals. A baseline control was obtained from measurements made with protein-free filtrate in the reaction cell, and this baseline was subtracted from the experimental thermograms. Data were fitted to a single binding site model using the Setup MicroCal PEAQ-ITC Analysis Software provided by the manufacturer.

On the set-up of experiment [2]: method as in PMID 26199994. Conditions: cited from earlier work.

B1: PBP (S3C-I76G-P86C): double-cysteine variant of E. coli phosphate binding protein PBP with additional I76G mutation (protein, UniProt P0AG82 26-346, looked up, variant S3C I76G P86C)
Phosphate-binding protein PstS: EACLTGAGATFPAPVYAKWADTYQKETGNKVNYQGIGSSGGVKQIIANTVDFGASDAPLSDEKLAQEGLFQFPTVGGGVVLAVNICGLKSGELVLDGKTLGDIYLGKIKKWDDEAIAKLNPGLKLPSQNIAVVRRADGSGTSFVFTSYLAKVNEEWKNNVGTGSTVKWPIGLGGKGNDGIAAFVQRLPGAIGYVEYAYAKQNNLAYTKLISADGKPVSPTEENFANAAKGADWSKTFAQDLTNQKGEDAWPITSTTFILIHKDQKKPEQGTEVLKFFDWAYKTGAKQANDLDYASLPDSVVEQVRAAWKTNIKDSSGKPLY
The Kd is a measure of binding affinity in units of concentration. B1 displayed an equilibrium dissociation constant (Kd) in experiment [1] of 10 ± 5 µM.

B2: wild-type: wild-type E. coli phosphate binding protein PBP (phoS gene) (protein, UniProt P0AG82 26-346, looked up)
Phosphate-binding protein PstS: EASLTGAGATFPAPVYAKWADTYQKETGNKVNYQGIGSSGGVKQIIANTVDFGASDAPLSDEKLAQEGLFQFPTVIGGVVLAVNIPGLKSGELVLDGKTLGDIYLGKIKKWDDEAIAKLNPGLKLPSQNIAVVRRADGSGTSFVFTSYLAKVNEEWKNNVGTGSTVKWPIGLGGKGNDGIAAFVQRLPGAIGYVEYAYAKQNNLAYTKLISADGKPVSPTEENFANAAKGADWSKTFAQDLTNQKGEDAWPITSTTFILIHKDQKKPEQGTEVLKFFDWAYKTGAKQANDLDYASLPDSVVEQVRAAWKTNIKDSSGKPLY
With B2, the Kd in experiment [2] (wild-type affinity for inorganic phosphate) is 0.07 µM.

B3: PBP (I76G): cysteine-less PBP variant with only the I76G mutation (protein, UniProt P0AG82 26-346, looked up, variant I76G)
Phosphate-binding protein PstS: EASLTGAGATFPAPVYAKWADTYQKETGNKVNYQGIGSSGGVKQIIANTVDFGASDAPLSDEKLAQEGLFQFPTVGGGVVLAVNIPGLKSGELVLDGKTLGDIYLGKIKKWDDEAIAKLNPGLKLPSQNIAVVRRADGSGTSFVFTSYLAKVNEEWKNNVGTGSTVKWPIGLGGKGNDGIAAFVQRLPGAIGYVEYAYAKQNNLAYTKLISADGKPVSPTEENFANAAKGADWSKTFAQDLTNQKGEDAWPITSTTFILIHKDQKKPEQGTEVLKFFDWAYKTGAKQANDLDYASLPDSVVEQVRAAWKTNIKDSSGKPLY
In turn, B3 came in with a Kd in experiment [1] of 19 ± 6 µM. Moreover, the “reduction of affinity for inorganic phosphate compared to wild-type” value in experiment [2] (I76G mutation) is given as about 200 fold.

The values above are taken from publication PMC12049551, “Labelizer: systematic selection of protein residues for covalent fluorophore labeling” (Nature Communications, 2025).
